Reference: patent US20240417475A1 (AFFIMED, published 2024)

B1: scFv-IgAb_148 (CD123-1×CD16a2) (bispecific antibody)
chain 1: QVQLQQSGAEVKKPGASVKVSCKASGYTFTDYYMKWVKQSHGKSLEWMGDIIPSNGATFYNQKFKGKATLTVDRSTSTAYMELSSLRSEDTAVYYCARSHLLRASWFAYWGQGTLVTVSSASTKGPSVFPLAPSSKSTSGGTAALGCLVKDYFPEPVTVSWNSGALTSGVHTFPAVLQSSGLYSLSSVVTVPSSSLGTQTYICNVNHKPSNTKVDKKVEPKSCDKTHTCPPCPAPEFEGGPSVFLFPPKPKDTLMISRTPEVTCVVVAVSHEDPEVKFNWYVDGVEVHNAKTKPREEQYNSTYRVVSVLTVLHQDWLNGKEYKCKVSNKALPAPIEKTISKAKGQPREPQVYTLPPSREEMTKNQVSLTCLVKGFYPSDIAVEWESNGQPENNYKTTPPVLDSDGSFFLYSKLTVDKSRWQQGNVFSCSVMHEALHNHYTQKSLSLSPGGGGGSGGGGSGGGGSGGGGSGGGGSGGGGSSYVLTQPSSVSVAPGQTATISCGGHNIGSKNVHWYQQRPGQSPVLVIYQDNKRPSGIPERFSGSNSGNTATLTISGTQAMDEADYYCQVWDNYSVLFGGGTKLTVLGGSGGSGGSGGSGGSGGSGGSQVQLVQSGAEVKKPGESLKVSCKASGYTFTSYYMHWVRQAPGQGLEWMGAIEPMYGSTSYAQKFQGRVTMTRDTSTSTVYMELSSLRSEDTAVYYCARGSAYYYDFADYWGQGTLVTVSS
chain 2: not shown
notes: also called CD123×CD16A scFv-IgAb_148; CD123/CD16A scFv-IgAb_148
B2: anti-FOLR1 IgG1 IgAb_335 (antibody)
chain 1: not shown
chain 2: DIQLTQSPSSLSASVGDRVTITCSVSSSISSNNLHWYQQKPGKAPKPWIYGTSNLASGVPSRFSGSGSGTDYTFTISSLQPEDIATYYCQQWSSYPYMYTFGQGTKVEIKRTVAAPSVFIFPPSDEQLKSGTASVVCLLNNFYPREAKVQWKVDNALQSGNSQESVTEQDSKDSTYSLSSTLTLSKADYEKHKVYACEVTHQGLSSPVTKSFNRGEC
notes: IgG1 with farletuzumab-derived Fv domains and wild-type Fc; also called IgAb_355; anti-FOLR1 IgG1 antibody comprising wild-type Fc
B3: scFv-IgAb_268 (CD123-1×CD16a1) (bispecific antibody)
heavy: QVQLQQSGAEVKKPGASVKVSCKASGYTFTDYYMKWVKQSHGKSLEWMGDIIPSNGATFYNQKFKGKATLTVDRSTSTAYMELSSLRSEDTAVYYCARSHLLRASWFAYWGQGTLVTVSSASTKGPSVFPLAPSSKSTSGGTAALGCLVKDYFPEPVTVSWNSGALTSGVHTFPAVLQSSGLYSLSSVVTVPSSSLGTQTYICNVNHKPSNTKVDKKVEPKSCDKTHTCPPCPAPEFEGGPSVFLFPPKPKDTLMISRTPEVTCVVVAVSHEDPEVKFNWYVDGVEVHNAKTKPREEQYNSTYRVVSVLTVLHQDWLNGKEYKCKVSNKALPAPIEKTISKAKGQPREPQVYTLPPSREEMTKNQVSLTCLVKGFYPSDIAVEWESNGQPENNYKTTPPVLDSDGSFFLYSKLTVDKSRWQQGNVFSCSVMHEALHNHYTQKSLSLSPGGGGGSGGGGSGGGGSGGGGSGGGGSGGGGSSYELTQPLSVSVALGQTARITCGGNNIGSKSVHWYQQKPGQAPVLVIYQDKKRPSGIPERFSGSNSGNTATLTISRAQAGDEADYYCQVWDDYIVLFGCGTKLTVLGGSGGSGGSGGSGGSGGSGGSQVQLVQSGAEVKKPGASVKVSCKASGYTFTNYYMQWVRQAPGQCLEWMGIINPSGGVTSYAQKFQGRVTMTRDTSTSTVYMELSSLRSEDTAVYYCARGSAYYYDFADYWGQGTLVTVSS
light: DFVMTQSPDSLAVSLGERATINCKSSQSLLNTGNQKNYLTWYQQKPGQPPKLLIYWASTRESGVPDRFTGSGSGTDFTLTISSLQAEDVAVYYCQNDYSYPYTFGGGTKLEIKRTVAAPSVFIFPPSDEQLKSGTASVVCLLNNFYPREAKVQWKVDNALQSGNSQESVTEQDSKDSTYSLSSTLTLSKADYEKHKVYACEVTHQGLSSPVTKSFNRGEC
notes: also called AFM28; CD123×CD16A scFv-IgAb_268

How the values were obtained:
[1] = target: T1, human CD16A (158F) expressed on CHO cells (cAg_34) (human, UniProt P08637 17-254); assay: flow cytometry on huCD16A-transfected CHO cells (cAg_34), one-site fit of MFI, experiment 3
T1 construct: also called huCD16A-transfected CHO cells
Method: (§1) To analyze binding of different antibody constructs to CHO cells transfected with human CD16A (cAg_34), relative to CD16 expression by flow cytometry, 1-2×10⁵ were resuspended in 100 μL FACS buffer (PBS (Invitrogen, cat.: 14190-169) containing 2% heat-inactivated FCS (Invitrogen, cat.: 10270-106), and 0.1% sodium azide (Roth, Karlsruhe, Germany, cat.: A1430.0100)) in round-bottom 96-well microtiter plates. After washing in FACS buffer, cells were incubated in 50 μL FACS buffer without antibodies or with titrated antibodies starting at a concentration of 100 μg/mL followed by ten 5-fold serial dilutions for 30 min on ice in the dark. […] After washing, binding was measured by flow cytometry and mean fluorescence intensities (MFI) of cell samples were calculated and corrected for background staining using control cells stained with secondary antibodies only.
(§2) Equilibrium dissociation constants (KD) of antibody binding were calculated by plotting MFI values and fitting a non-linear regression model for one-site binding to hyperbolic dose-response curves using GraphPad Prism.

[2] = target: T1, human CD16A (158F) expressed on CHO …; assay: flow cytometry on huCD16A-transfected CHO cells, on ice, APC goat anti-human IgG detection
Method: as §1

[3] = target: T1, human CD16A (158F) expressed on CHO …; assay: flow cytometry on huCD16A-transfected CHO cells (cAg_34), one-site fit of MFI, mean of 3
Method: as §1, §2

[4] = target: T1, human CD16A (158F) expressed on CHO …; assay: flow cytometry on huCD16A-transfected CHO cells (cAg_34), one-site fit of MFI, experiment 1
Method: as §1, §2

[5] = target: T1, human CD16A (158F) expressed on CHO …; assay: flow cytometry on huCD16A-transfected CHO cells (cAg_34), one-site fit of MFI, experiment 2
Method: as §1, §2

[6] = target: T2, human FOLR1 endogenously expressed on tumor cell lines (human, UniProt P15328 25-234); assay: flow cytometry on HCC-827 cells, 37 C, one-site fit of MFI, mean
T2 construct: whole, on cells; also called FOLR1-positive tumor cell lines; FOLR1+ target cells
Method: (§3) Cells were collected and centrifuged at 400×g, 5 min, 4° C. Cell pellets were resuspended in FACS buffer (PBS (Invitrogen, cat.: 392-0434) containing 2% h.i. FCS (Invitrogen, cat.: 10500-064), and 0.1% sodium azide (Sigma, cat.: S8032)) at 1-5×10⁶ cells/mL. 100 μL/well of the cell suspension were transferred into U-shaped, 96-well micro plates (0.1-0.5×10⁶ cells per well), cells were pelleted at 400×g, 5 min, 4° C., and resuspended in 100 μL/well of serial dilutions of the indicated antibodies in FACS buffer. After 40-50 min incubation at 37° C., cells were washed 3-times with ice-cold FACS buffer. […] After the final incubation step, cells were washed 2-times with ice-cold FACS buffer, and the cell pellet was resuspended in 100 μL FACS buffer. Fluorescence intensities of >1×10⁴ viable cells were analyzed by flow cytometry and the median fluorescence intensity (MFI) was determined for each sample.
(§4) Equilibrium dissociation constants (KD) of antibody binding, mean and standard deviation (SD) were calculated by plotting MFI values and fitting a non-linear regression model for one-site binding to hyperbolic dose-response curves using GraphPad Prism for Windows (v9; GraphPad Software; La Jolla California USA).
(§5) Specific antibody binding capacity (SABC) as a marker for FOLR1 expression level on cells was determined on all tumor cell lines using QIFIKIT.

[7] = target: T3, human FOLR1-mFc_Avi-tag (sAg_303) (human, UniProt P15328 25-234, limits assumed); assay: ELISA, plate coated with human FOLR1-mFc_Avi-tag (sAg_303), one-site fit, mean of 3
T3 construct: also called human FOLR1 (sAg_303); recombinant human FOLR1
Method: (§6) 96 well ELISA plates (F96 Maxisorp Immuno Plate, Nunc, cat: 442404) were coated overnight at 4° C. with 50 μL/well of 10 μg/mL human FOLR1-mFc_Avi-tag in DPBS. After overnight incubation plates were washed three times with PBST and blocked with Candor Blocking solution for 2 h at RT under mild agitation. […] After incubation with the secondary antibodies, the plate was washed five times with PBST and one time with PBS. Chromogenic substrate (1:1 mixture of TMB:TMBB, SeraCare cat: 5120-0048 and 5120-0037) was added and the reaction was stopped by addition of an equal volume of 0.5 M H₂SO₄ after sufficient color development. Absorbance at 450 nm was measured in an ELISA plate reader (Sunrise Absorbance Reader 901000833, Schoeller Instruments). The absorbance values were corrected by subtracting the background of the respective secondary antibody and fitted with a one site binding function (hyperbola) using GraphPad Prism (version 9.3.1. GraphPad Software, La Jolla California USA). KD is the concentration of ligand required to reach half-maximal binding.

[8] = target: T2, human FOLR1 endogenously expressed on …; assay: flow cytometry on IGROV-1 cells (FOLR1 high) at 37 °C, FITC anti-human IgG detection
Method: as §3

[9] = target: T2, human FOLR1 endogenously expressed on …; assay: flow cytometry on OVCAR-3 cells (FOLR1 medium) at 37 °C, FITC anti-human IgG detection
Method: as §3

[10] = target: T3, human FOLR1-mFc_Avi-tag (sAg_303); assay: ELISA, plate coated with human FOLR1-mFc_Avi-tag, anti-human Fab-HRP detection, A450
Method: as §6

[11] = target: T2, human FOLR1 endogenously expressed on …; assay: flow cytometry on IGROV-1 cells, 37 C, one-site fit of MFI, mean
Method: as §3, §4, §5

[12] = target: T4, human CD16A-mFc (158V) (sAg_149) (human, UniProt P08637 17-208); assay: ELISA, plate coated with human CD16A-mFc (158V) (sAg_149), one-site fit, mean of 3
T4 construct: also called CD16A 158V (sAg_149); recombinant human CD16A 158V
Method: After incubation with the secondary antibodies, the plate was washed five times with PBST and one time with PBS. Chromogenic substrate (1:1 mixture of TMB:TMBB, SeraCare cat: 5120-0048 and 5120-0037) was added and the reaction was stopped by addition of an equal volume of 0.5 M H₂SO₄ after sufficient color development. Absorbance at 450 nm was measured in an ELISA plate reader (Sunrise Absorbance Reader 901000833, Schoeller Instruments). The absorbance values were corrected by subtracting the background of the respective secondary antibody and fitted with a one site binding function (hyperbola) using GraphPad Prism (version 9.3.1. GraphPad Software, La Jolla California USA). KD is the concentration of ligand required to reach half-maximal binding.

[13] = target: T2, human FOLR1 endogenously expressed on …; assay: flow cytometry on OVCAR-3 cells, 37 C, one-site fit of MFI, mean
Method: as §3, §4, §5

[14] = target: T2, human FOLR1 endogenously expressed on …; assay: cell-based or functional assay
[15] = target: T2, human FOLR1 endogenously expressed on …; assay: flow cytometry on NCI-H2110 cells, 37 C, one-site fit of MFI, mean
Method: as §3, §4, §5

T1 sequence (P08637 17-254 limits assumed): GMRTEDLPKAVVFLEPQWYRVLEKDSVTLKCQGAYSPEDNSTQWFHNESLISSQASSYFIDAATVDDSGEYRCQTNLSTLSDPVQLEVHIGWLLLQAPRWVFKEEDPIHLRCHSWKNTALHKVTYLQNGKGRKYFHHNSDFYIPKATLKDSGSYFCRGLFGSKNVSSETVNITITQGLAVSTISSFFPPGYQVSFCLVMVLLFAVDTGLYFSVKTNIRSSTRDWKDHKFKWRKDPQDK
T2 sequence (P15328 25-234): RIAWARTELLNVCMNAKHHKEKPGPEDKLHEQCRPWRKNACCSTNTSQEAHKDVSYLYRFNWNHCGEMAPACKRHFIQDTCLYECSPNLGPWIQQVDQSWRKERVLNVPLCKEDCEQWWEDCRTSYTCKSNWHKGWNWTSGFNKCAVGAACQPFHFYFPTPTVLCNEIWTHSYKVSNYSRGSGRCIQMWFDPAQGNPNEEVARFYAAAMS
T3 sequence (P15328 25-234 limits assumed): as the sequence (P15328 25-234) above
T4 sequence (P08637 17-208 F176V limits assumed): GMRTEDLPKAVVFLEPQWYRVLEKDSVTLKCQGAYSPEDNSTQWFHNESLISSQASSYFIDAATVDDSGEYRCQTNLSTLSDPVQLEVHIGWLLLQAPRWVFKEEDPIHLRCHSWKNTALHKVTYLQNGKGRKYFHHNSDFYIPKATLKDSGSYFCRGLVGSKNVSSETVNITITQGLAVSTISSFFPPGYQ

Row | Binder | Kd [1] | EC50 (read off the curve) [2] | Kd [3] | Kd [4] | Kd [5] | Kd [6] | Kd [7] | EC50 (read off the curve) [8] | EC50 (read off the curve) [9] | EC50 (read off the curve) [10] | Kd [11] | Kd [12] | Kd [13] | EC50 [nM] of ADCP, HCC-78 cells [14] | EC50 [nM] of ADCP, HeLa cells [14] | Phagocytosis [%], 4 h ADCP, DK-MG cells [14] | Phagocytosis [%], 4 h ADCP, HCC-78 cells [14] | Phagocytosis [%], 4 h ADCP, HeLa cells [14] | Kd [15]
1 | B1 | 37.9 nM | ~20 nM | 37.6 nM | 56.2 nM | 18.7 nM | – | – | – | – | – | – | – | – | – | – | – | – | – | –
2 | B2 | – | – | – | – | – | 3.2 nM | 0.05 nM | ~4 nM | ~2 nM | ~0.05 nM | 4.4 nM | 3.53 nM | 1.8 nM | 0.81 nM | 0.78 nM | 0% | 10.7% | 16.4% | 2.3 nM
3 | B3 | 23.5 nM | ~8 nM | 16.3 nM | 17.7 nM | 7.8 nM | – | – | – | – | – | – | – | – | – | – | – | – | – | –
